Data: patent US20190248875A1

Target: envelope protein of DENV type 2 (DENV2), strain NGC M29095 (dengue virus type 2 (strain NGC)) (UniProt P14340)
Assay: cell-based or functional assay

4G2 antibodies against the envelope protein of Flavivirus (antibody)
fold of infection enhancement of DENV2 in K562 cells (ADE assay): 60 fold
